Laboratory results as given in patent US8969027B2, “Protease assay” (priority 2008, dated 2015).
Each block holds one compound with its values, some of them ahead of it. No end group written: not given here.

What was measured:
[1] = Fluorescence quantum yield of TCPP; format: physicochemical; details: untethered, non-metalated TCPP
Protocol: The emission spectra of the nanoplatform assembly (1×10^−5 M) in PBS in the presence of about 1×10^−8 M urokinase is depicted in FIG. 4, at 0 (A), 2 (B), 4 (C), and 6 minutes (D). […] The reason for the observed non-linear behavior can be found in the high fluorescence quantum yield of the untethered, non-metalated TCPP. We estimated Φ=0.082, which is approximately eight times higher than in the tethered state, when the large porphyrin-concentration in the sphere around the Fe/Fe3O4-nanoparticle leads to increase FRET and, consequently, radiation-less deactivation of the excited states.

[2] = molecular target: T1, urokinase (Homo sapiens, UniProt P00749); assay: FRET-based sensor emission spectra in the presence of urokinase; format: biochemical; details: assembly 1×10^−5 M in PBS, about 1×10^−8 M urokinase, 0-6 minutes
T1 construct: purchased Innovative Research, Inc., Novi, Mich
Protocol: For the FRET-Based Sensor, five Zn-TCPP porphyrins were attached to one central stealth-protected Fe/Fe3O4 nanoparticle, and then a non-metalated TCPP porphyrin was attached to the central nanoparticle, using the procedure described below.
To prepare the stealth-protected Fe/Fe3O4-nanoparticles, 35 mg of dopamine-tetraethylene glycol ligand were dissolved in 5 ml THF. Next, 11.0 mg of Fe/Fe3O4-nanoparticles were added and sonicated at room temperature for 1 hour. […] The solid was then collected with a magnet and solvent was decanted carefully. The solid was washed with THF (3×3 ml). After drying under vacuum for 2 hours, 10.0 mg of stealth-protected nanoparticle product was obtained.
The oligopeptide linker was then attached to the metalated porphyrin. […]
The emission spectra of the nanoplatform assembly (1×10^−5 M) in PBS in the presence of about 1×10^−8 M urokinase is depicted in FIG. 4, at 0 (A), 2 (B), 4 (C), and 6 minutes (D). […] The reason for the observed non-linear behavior can be found in the high fluorescence quantum yield of the untethered, non-metalated TCPP. […]
In FIG. 5, the ratios of the integrals of the fluorescence bands shown at λ1=607 nm, λ2=654 nm, and λ3=718 nm are plotted versus the mol percent of released TCPP (as measured by HPLC using an Agilent workstation (HP 1050) equipped with an optical detection system). […]

[3] = molecular target: T1, urokinase; assay: Fluorescence/phosphorescence assay of uPA activity with chromophore-chromophore assembly; format: biochemical; details: excitation of pyrene at 280 nm, 37° C., about 1×10^−8 mol urokinase, 0-15 minutes
Protocol: In this example, fluorescence/phosphorescence assays were used to measure activity of uPA. A chromophore-chromophore assembly was prepared using the peptide sequence SRSRSRSRSRSGRSAGGGC (SEQ ID NO: 18) (GenScript) as a spacer between a pyrene fluorophore and a coumarin acceptor. All chemicals and solvents were purchased from Fisher/Acros (Pittsburgh, Pa.), unless otherwise noted. The assembly was prepared by dissolving 0.00010 mol of coumarin in THF at room temperature. Next, 0.00012 mol of 1-ethyl-3-(3-dimethyllaminopropyl)carbodiimide (EDC) were added as solid under argon-atmosphere and allowed to react for 5 hours. Then, the oligopeptide linkage was attached to the coumarin by adding to the reaction 0.00010 mol of the oligopeptide dissolved in 1 ml bidest. (double purified) water, followed by stirring at room temperature for 24 hours under argon atmosphere. Next, 0.0020 mol of mercaptopyrene was added as a solid to the solution, and completely dissolved within 5 minutes. The solution was continuously stirred under ambient conditions for another 24 hours. […]
The spectral shift from the assay is depicted in FIG. 3. The changes in the emission spectra were measured using a spectrofluorometer (ISA-SPEX, Fluoromax-2; ISA, Inc., Edison, N.J.). Upon photoexcitation of the pyrene at 280 nm, FRET occurs, which causes the attached coumarin to emit most of the phosphorescence/luminescence. […]

[4] = molecular target: T1, urokinase; assay: UV/Vis-absorption spectroscopy measurement of uPA activity with nanoparticle-nanoparticle assembly; format: biochemical; details: PBS, 37° C.
Protocol: In this procedure, UV/Vis-Absorption spectroscopy was used to measure the activity of uPA. All chemicals and solvents were purchased from Fisher/Acros (Pittsburgh, Pa.), unless otherwise noted. A nanoparticle-nanoparticle assembly was prepared using citrate-stabilized gold nanoparticles (Sigma-Aldrich, St. Louis, Mo.) with a 10 nm diameter and an oligopeptide with the following sequence: CGGGSGRSAGGGC (SEQ ID NO: 35) (GenScript, Piscataway, N.J.). First, 1 mg of the nanoparticles was suspended in 25 ml of tetrahydrofuran (THF) containing 1.0×10^−3 M of glycine. The microheterogeneous solution was heated under pressure (100 psi) and argon-atmosphere to 200° C. for 5 hours. The reaction was carried out using a High-Pressure Reactor (available from Parr Instruments, Moline, Ill.). Digestive ripening decreased the Au-nanoparticle diameter to 4-5 nm. The nanoparticles were then removed from the solution by ultracentrifugation at 30,000 rpm and then resuspended in THF. The procedure was repeated 10 times to remove all non-bonded glycine.
Next, 0.1 mg of the oligopeptide was added to the Au-nanoparticles in 1.0 ml of anhydrous THF, followed by stirring for 24 hours. The oligopeptide and nanoparticles were precipitated by centrifugation at 30,000 rpm and then resuspended in THF. This procedure was repeated 10 times. The linked Au—Au nanoparticle assemblies were then dissolved in phosphate buffer (PBS; pH=7.02), precipitated by centrifugation at 20,000 rpm and resuspended again in PBS.
The reported absorption coefficient at the maximum absorption of the plasmon is ε=7.66×10^9 M^−1 cm^−1. This absorption coefficient was used to estimate the concentration of the Au—Au nanoparticles at […].
The Au—Au nanoparticles in PBS solution were then added to a quartz cuvette (˜3.0 mL). The solution was heated to 37° C. for 15 minutes. Next, 1×10^−8 mol of urokinase in 0.050 ml of PBS (Innovative Research, Inc., Novi, Mich.) was added to the cuvette. […]

Compound: O=C(O)c1ccc(-c2c3nc(c(-c4ccc(C(=O)O)cc4)c4ccc([nH]4)c(-c4ccc(C(=O)O)cc4)c4nc(c(-c5ccc(C(=O)O)cc5)c5ccc2[nH]5)C=C4)C=C3)cc1 [TCPP, tetracarboxy-phenyl-porphyrin]
fluorescence quantum yield Φ [1]: 0.082

fluorescence band at λ1=607 nm in the presence of urokinase [2]: distinct decrease
Compound: FRET-Based Sensor: five Zn-TCPP porphyrins and a non-metalated TCPP attached to one stealth-protected Fe/Fe3O4 nanoparticle via CGGGSGRSAGGGC linkers (cysteine pairing not given here; also: links Zn-TCPP porphyrins and TCPP to Fe/Fe3O4 nanoparticle, attachment points not given here)

Compound: chromophore-chromophore assembly: pyrene fluorophore and coumarin acceptor linked by peptide SRSRSRSRSRSGRSAGGGC (SEQ ID NO: 18) (also: pyrene fluorophore and coumarin acceptor attached)
coumarin emission (FRET) after adding urokinase [3]: decreases with time

maximum of the gold plasmon absorption after urokinase cleavage ([4]; 1×10^−8 mol urokinase): 517 nm | time for the shift of the plasmon absorption maximum ([4]; 1×10^−8 mol urokinase): ≤ 180 s | maximum of the gold plasmon absorption before urokinase cleavage ([4]; before adding urokinase): 523 nm
Compound: coupled pair of gold nanoparticles: 4-5 nm gold nanoparticles linked by oligopeptide CGGGSGRSAGGGC (SEQ ID NO: 35) (cysteine pairing not given here; also: attached to gold nanoparticles)
